According to US20190350938A1 (BROAD INSTITUTE, published 2019):

T1: P2D SLC16A11^REF-V5 (human, UniProt Q8NCK7 1-447)
T1 construct: bait of the proteomics study; also called P2D WT SLC16A11; WT SLC16A11
T1 sequence: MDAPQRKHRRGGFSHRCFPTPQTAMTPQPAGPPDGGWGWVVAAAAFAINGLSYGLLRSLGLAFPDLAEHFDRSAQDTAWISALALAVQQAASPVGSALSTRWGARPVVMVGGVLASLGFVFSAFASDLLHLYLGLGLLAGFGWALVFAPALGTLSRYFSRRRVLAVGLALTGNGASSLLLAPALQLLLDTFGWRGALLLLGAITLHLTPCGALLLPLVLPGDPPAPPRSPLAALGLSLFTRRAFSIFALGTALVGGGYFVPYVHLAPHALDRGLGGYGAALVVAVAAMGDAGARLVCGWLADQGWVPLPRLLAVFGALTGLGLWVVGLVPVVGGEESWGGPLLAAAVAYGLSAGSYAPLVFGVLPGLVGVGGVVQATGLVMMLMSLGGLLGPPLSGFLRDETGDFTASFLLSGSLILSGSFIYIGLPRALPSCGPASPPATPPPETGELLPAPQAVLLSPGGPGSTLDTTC

B1: Basigin (other, human, UniProt P35613-2 22-269, looked up)
chain: AAGTVFTTVEDLGSKILLTCSLNDSATEVTGHRWLKGGVVLKEDALPGQKTEFKVDSDDQWGEYSCVFLPEPMGTANIQLHGPPRVKAVKSSEHINEGETAMLVCKSESVPPVTDWAWYKITDSEDKALMNGSESRFFVSSSQGRSELHIENLNMEADPGQYRCNGTSSKGSDQAIITLRVRSHLAALWPFLGIVAEVLVLVTIIFIYEKRRKPEDVLDDDDAGSAPLKSSGQHQNDKGKNVRQRNSS
modifications: glycosylated (runs as multiple bands)
notes: Endogenous protein co-precipitated from HEK293T lysate; also called BSG; endogenous BSG

Assays:
P2D SLC16A11^REF-V5 = target: T1, P2D SLC16A11^REF-V5; experiment: anti-V5 IP of P2D SLC16A11REF-V5 from HEK293T lysate, iTRAQ quantitative MS; enrichment vs empty vector control IP
Basigin = target: B1; experiment: cell-based or functional assay

Molecule | BA log fold change (log fold change) (P2D SLC16A11^REF-V5) | B.A. logFC (P2D SLC16A11^REF-V5) [logFC] | other results
PSMA3 (from UniProt P25788 2-255) | 1.09 | – | –
Transmembrane protein 33 (from UniProt P57088 2-247) | 1.25 | 1.25 | –
PSMD12 (from UniProt O00232 2-456) | 1.18 | – | –
MAGED1 (from UniProt Q9Y5V3 1-834) | 1.09 | – | –
7-dehydrocholesterol reductase (from UniProt Q9UBM7 1-475) (enzyme) | 1.69 | 1.69 | –
TIMM23B (from UniProt Q5SRD1 1-188) | 1.22 | 1.22 | –
LPCAT1 (from UniProt Q8NF37 1-534) (enzyme) | 1.16 | – | –
PHGDH (from UniProt O43175 2-533) (enzyme) | 1.11 | – | –
CANX (from UniProt P27824 56-627) | 1.38 | 1.38 | –
BRAT1 (from UniProt Q6PJG6 1-821) | 1.04 | – | –
QIL1 (from UniProt Q5XKP0 1-118) | 1.08 | – | –
TUBA1B (from UniProt P68363 1-451) | 1.05 | – | –
DNAJC7 (from UniProt Q99615 2-494) | 1.05 | – | –
STT3A (from UniProt P46977 1-705) (enzyme) | 1.27 | – | –
SCFD1 (from UniProt Q8WVM8 2-642) | 1.08 | – | –
SEC61A2 (from UniProt Q9H9S3 1-476) | 1.59 | 1.59 | –
SURF4 (from UniProt O15260 2-269) | 1.33 | 1.33 | –
HSD17B12 (from UniProt Q53GQ0 1-312) (enzyme) | 1.26 | 1.26 | –
SLC25A22 (from UniProt Q9H936 1-323) | 1.2 | – | –
ADCK4 (from UniProt Q96D53 1-544) | 1.11 | – | –
DNAJB4 (from UniProt Q9UDY4 2-337) | 1.08 | – | –
E3 ubiquitin-protein ligase RNF5 (from UniProt Q99942 2-180) (enzyme) | 1.42 | 1.42 | –
GCN1L1 (from UniProt Q92616 2-2671) | 1.01 | – | –
Proteasome subunit alpha type-1 (from UniProt P25786 1-269) | 1.2 | 1.2 | –
VDAC2 (from UniProt P45880 1-309) | 1.14 | – | –
EMC3 (from UniProt Q9P0I2 2-261) | 1.65 | 1.65 | –

Molecule | BA log fold change (log fold change) (P2D SLC16A11^REF-V5) | B.A. logFC (P2D SLC16A11^REF-V5) [logFC] | other results
DDOST (from UniProt P39656 43-456) | 1.65 | 1.65 | –
XPO5 (from UniProt Q9HAV4 2-1204) | 1.14 | – | –
SACM1L (from UniProt Q9NTJ5 1-587) (enzyme) | 1.26 | 1.26 | –
TUBA4A (from UniProt P68366 1-448) | 1.02 | – | –
AGPAT6 (from UniProt Q86UL3 38-456) (enzyme) | 1.16 | – | –
PSMD14 (from UniProt O00487 1-310) | 1.31 | 1.31 | –
UBAC2 (from UniProt Q8NBM4 36-344) | 1.21 | 1.21 | –
TUBA1C (from UniProt F5H5D3 1-519) | 1.04 | – | –
KIAA0368 (from UniProt J3KN16 1-2017) | 1.16 | – | –
DNAJC3 (from UniProt Q13217 32-504) | 1.22 | – | –
BAG6 (from UniProt P46379 1-1162) | 1.08 | – | –
ATP1B3 (from UniProt P54709 1-279) | 1.18 | – | –
SLC25A3 (from UniProt Q00325 50-361) | 1.65 | 1.65 | –
SEC61A1 (from UniProt B4DR61 1-482) | 1.84 | 1.84 | –
PSMD11 (from UniProt O00231 1-423) | 1.02 | – | –
PSMC3 (from UniProt P17980 1-439) | 1.16 | – | –
BAG2 (from UniProt O95816 2-211) | 1.26 | 1.26 | –
PSMD2 (from UniProt Q13200 1-908) | 0.98 | – | –
FAS-associated factor 2 (from UniProt Q96CS3 2-445) | 1.23 | 1.23 | –
TECR (from UniProt Q9NZ01 1-308) (enzyme) | 1.1 | – | –
HEATR2 (from UniProt Q86Y56 2-855) | 1.03 | – | –
PPP6R3 (from UniProt Q5H9R7 1-879) | 1.18 | – | –
AUP1 (from UniProt Q9Y679 1-410) | 1.1 | – | –
Embigin (protein, human, UniProt Q6PCB8 33-327, looked up) DGSAPDSPFTSPPLREEIMANNFSLESHNISLTEHSSMPVEKNITLERPSNVNLTCQFTTSGDLNAVNVTWKKDGEQLENNYLVSATGSTLYTQYRFTIINSKQMGSYSCFFREEKEQRGTFNFKVPELHGKNKPLISYVGDSTVLTCKCQNCFPLNWTWYSSNGSVKVPVGVQMNKYVINGTYANETKLKITQLLEEDGESYWCRALFQLGESEEHIELVVLSYLVPLKPFLVIVAEVILLVATILLCEKYTQKKKKHSDEGKEFEQIEQLKSDDSNGIENNVPRHRKNESLGQ | 1.55 | 1.55 | –
SLC16A11^T2D-V5 (other, not shown: small tags and cut ends) MPAPQRKHRRGGFSHRCFPTPQTAMTPQPAGPPDGGWGWVVAAAAFAINGLSYGLLRSLGLAFPDLAEHFDRSAQDTAWISALALAVQQAASPVGSALSTRWGARPVVMVGGILASLGFVFSAFASGLLHLYLGLGLLAGFGWALVFAPALGTLSRYFSRRRVLAVGLALTGNGASSLLLAPALQLLLDTFGWRGALLLLGAITLHLTPCGALLLPLVLPGDPPAPPRSPLAALGLSLFTRRAFSIFALGTALVGGGYFVPYVHLAPHALDRGLGGYGAALVVAVAAMGDAGARLVCGWLADQGWVPLPRLLAVFGALTGLGLWVVGLVPVVGGEESWGSPLLAAAVAYGLSAGSYAPLVFGVLPGLVGVGGVVQATGLVMMLMSLGGLLGPPLSGFLRDETGDFTASFLLSGSLILSGSFIYIGLPRALPSCGPASPPATPTPETGELLPAPQAVLLSPGGPGSTLDTTCLPTFLYKVVGKPIPNPLLGLDST | – | – | pyruvate influx and efflux rates (pyronic FRET assay, 293T cells) (Basigin): ~0.5 fold of WT SLC16A11
B1 | – | – | BA log fold change (P2D SLC16A11^REF-V5): 1.43 log fold change
